This is an account of results in the DeepSol protein solubility set.

The nature of this series: soluble on expression in E. coli; label from the status in PepcDB or PDB records.
As to “MKKEKLRTENISFQYPGAATYALKDVSFSLFEGEWVSVIGQNGSGKSTLAKLLNGLFLPEAGTITVNDTMILSEETVWDVRKQIGMVFQNPDNQFVGTTVQDDVVFGLENIGMPREQMVERLNQALRLVRMEDFLNDEPHSLSGGQKQRVAIAGVLALQPSILILDEATSMLDPQGRREVVETVRQLVNEKGITVLSITHDLEEAAQSDRVIILNKGEILEEGTPEQIFKSSHMLQEIGLDVPFSVKIAELLKRNEILLQNTHLTMESLVNELWRLHSKK”, the “soluble on expression in E. coli” value was “not soluble”.

On to “MGSDKIHHHHHHMMKSRDKKDLILESIIQTYLLDNAPIGSNELNSNLCIPASTIRVYLKRLSDEGLITQLHISSGRIPTILTMQNYWQNFWEKEQDKNIHIKNESFLKELSKEFEIYCLVYGGRSLVLKEVLDLNTKFIVLDFEDEELVLKYEKEAWNFLQSLIGLDLSSIEKIALRVHFIDLVEKIASLRQNLICYRSNEERAYQIYQNDEFVKLLDCQIHRHFKESLEFEPLFKEGFMGLKVDAQFLGEDVNIILAGSVYTDYKKILQYIKEAA”, for which the “soluble on expression in E. coli” value is “not soluble”.

Take “MKRVLVAMSGGVDSSVAALLLKEAGYEVVGAMMRFWPDLPPPSLEAGKPRAWESCCTPDAAYEARRVADRLGIPFYLLDYREVFEEEIISPFLQDYAQGRTPNPCARCNTFVKFGALLKQARRLGLDYVATGHYVRKEGLALLRGLDPHKDQTYFLWGTPKEALPHLLFPVGGLTKPEVRALAEKAGLPTARRPESQNLCFVAGDLKGFLKERLKPRPGPLVDALTGEVVGEHEGASLYTLGQRKGLGLYKTHLERYVVGVDPERNVVYVGPKEACYFEGLEGEGLNLLAELPEEVEVQVRYRTPPVRAKVESLSPLRLRFAHPVFAVTPGQSAVFYRGERLLGGAVIRRGLYNLAGLEDPRALTFS”: the “soluble on expression in E. coli” value is recorded as “soluble”.

Regarding “MNGYVYLVGAGPGDEGLITKKAIECLKRADIVLYDRLLNPFFLSYTKQTCELMYCGKMPKNHIMRQEMINAHLLQFAQEGKIVVRLKGGDPSIFGRVGEEAETLAAANIPYEIVPGITSSTAASSYAGIPLTHRNYSNSVTLLTGHAKGSLTDHGKYNSSHNSDTIAYYMGIKNLPTICKNLRQAGKKEDTPVAVIEWGTTGKQRVVTGTLSTIVSIVKNENISNPSMTIVGDVVSLRDQIAWKEHKPLHGKKVLFTSATNKTSVMKQKLQEAGAEIYQIPTFKKEEYTLTLEQIIEIFNVNRLVFCSAESVEILMQSCSKYKKDIRSLQAELQHMNVATQEKLMQYGLLSKEAKFSSDTTVYLGRNINRIAFIQEKIGAGSYMMTHKYTIDHRFDEVHSRMLSEFLWDSIVFEGRASIDTFLAEVKRLGFLDIVTLPFSYTDVPTLRYANKVGFHNIDHQLQETLMQKDMVRQ”, the “soluble on expression in E. coli” value is on record as “not soluble”.

Take “MGSDKIHHHHHHMFRSMRTSHERVHFTAKARRASTMAAPQNKVIVTCAVTGGIHTPTMSPHLPITARDIEDESVAAAEAGAAIVHLHARKPENGQPSQDPALFLEFLPRIAARSDVVINLTTGGAPNMLVEERLQPALQLKPEVASLNMGSMNFGLYPMIARHKTFKYDWERPYLEGSEDRVFRNTFKEIRYILESCADNGTRFEIECYDTSHLYTAAHFIDRGILKPPFFIQSVFGLLGGIGTHPDDVMHMRRTAERLFGKDYYWSVLGAGRSQMPIASMAAAMGGNVRVGLEDSLWEDRGRLSRSNADQVRRVVGILKSLNLEVATPDEARDMLQLKGRDAVAF”: the “soluble on expression in E. coli” value is “not soluble”.

Turning to “MIEFSDEDLQKPVRIVIEKIRPYLLKDGGNIEVLGVKSMKIYVALEGACKTCSSSKITLKNVIERQLKMDIHPNLEVVCLENAKEFDKL”, the “soluble on expression in E. coli” value is listed as “not soluble”.

Consider “MSLEAEGDEIYEDLMRSEPVSMPPKMTEYDKRCCCLREIQQTEEKYTDTLGSIQQHFLKPLQRFLKPQDIEIIFINIEDLLRVHTHFLKEMKEALGTPGAANLYQVFIKYKERFLVYGRYCSQVESASKHLDRVAAAREDVQMKLEECSQRANNGRFTLRDLLMVPMQRVLKYHLLLQELVKHTQEAMEKENLRLALDAMRDLAQCVNEVKRDEGHHHHHH”, for which the “soluble on expression in E. coli” value is recorded as “soluble”.

As to “MGSDKIHHHHHHMIKRAVEIVRQRGVGVLIKKIPPYIYQQVWPYLPSAGYTYKNGIKSCERGRVLDQFLPKYITQYATHQPSYESQYIEAIRRHVTEGQDVVLVGGGEGISTVVAANQVQRTGEVTVFEGAAEEARKSQVVVEINEVSDRTTVHHTIVSEDVSLRSAASGAEVLPSAELPSCDVLAIDADGAEISILDGIVNHPAVLIVEHHAVADTSGLALEYQPDRVRDLITNLGYDIVDEMSDPAGAGGGRFEERIYVGKRLAVEPSDLM”, the “soluble on expression in E. coli” value was “not soluble”.

As for “MKSVLITFDQAYYERIMALLDRLNCRGFTYLEKVQGRGSKTGDPHFGSHAWPSMCSAILTVVDDNKVDPLLDTLHKMDLQTEQLGLRAFVWNIERTI”, the “soluble on expression in E. coli” value is recorded as “not soluble”.

In the case of “VAKMRFIDIGANLLDEMYTGQYNDKPYHPPDLSAVLERAWAAGLEKLMITAGSLKEARAALELAKTDERLYCTVGCHPTRCKEFEDHPGGPEAYLQELLEVLKEGQALGKVVAVGECGLVATDYERLHFCDADTQKKYFEAQFRLAKESGLPMFLHLRAAADDFLDITGRHLGDFPRGGVVHSFDGTAEEAARVLAVPQLAIGINGCSLKTDDNLAVVGGLPLERIMLETDCPWCEIRPTHAGRKHVSAEALAGVTGAKDRKKFMPGCQVKSRNEPANIRQVLEVVAGVKGRTDLEAVADVIFGNTERMFFPTA”, the “soluble on expression in E. coli” value is on record as “not soluble”.

“MAHHHHHHMSEGGRRRKVYGFKAERQAFFSKHVRQTFLEEGRKKKDEERARMEAYRKLCEEEGIVSKRLEDYDRTRKAAKEHLSSTLEQIDYDQSLTNNEKKKRKYNLKRKFAATTVNDLIDKQQKHYSAVSGMEEVQRRQQQEREEKQKARQEREREKQSRVQARKSRNALFAKRTKKGQPAMSSRVESLLQKISWQ”: the “soluble on expression in E. coli” value is “not soluble”.

As to “SFQRALPRQPVPSAQETVRKYLESVRPVLGDDAFDRATALANDFLRLHAPRLQLYLQLKSWCTSNYVSDWWEEFVYLRSRGSLINSTYYMMDFLYVTPTPLQAARAGNAVHTLLLYRHLLNRQEISPTLLMGMRPLCSAQYERMFNTTRIPGVEKDHLRHLQDSRHVAVFHRGRFFRVGTHSPNGLLSPRALEQQFQDILDDPSPACPLEEHLAALTAAPRSMWAQVRESVKTHAATALEAVEGAAFFVSLDSEPAGLTREDPAASLDAYAHALLAGRGHDRWFDKSFTLIVFSNGKLGLSVEHSWADCPVSGHLWEFTLATECFQLGYATDGHCKGHPDPTLPQPQRLQWDLPEQIQPSISLALRGAKTLSGNIDCHVFPFSHFGKSFIKCCHVSSDSFIQLVLQLAHFRDRGQFCLTYESAMTRLFLEGRTETVRSCTREACQFVRAMDNKETDQHCLALFRVAVDKHQALLKAAMSGQGIDRHLFALYIMSRLLHMQSPFLTQVQSQQWLLSTSQVPVQQTHLIDVHNYPDYVSSGGGFGPAHDHGYGISYIFMGENAITFHISSKKSSTETDSHRLGQHIENALLDVASLFRVGQHFKRQFRGENSDYRYNFLSCKTVDPNTPTSSTNL”, the “soluble on expression in E. coli” value is on record as “soluble”.

With “MVRKGRQHTEEALQEPRADRDRDVPNHIRGQAEQGVGARALQEGRGERAPQDTPAARGGRARGEGAREGEDYIARWEKPPRHHRQGDNGGARQDQARAGEVPLDLLILILIGP”, the “soluble on expression in E. coli” value is listed as “soluble”.

Consider “MNGNGENGTDEKQKLLSVVGVVSEEVVEMNRVSSARFQVSKTDEDEKTSDDNLRKLKSGSEPPPPTQNHEAVTLVTRKMSATGRFMVTSDTNPGQLVAEVADELGIDVPIDPPAEKSPASRAKGVHFSVGDKDSGSMSEDGDEKRNITHENQTTFNMKSWRNMKTIEHPPIIDFYRNSIDTDGVFNRPSMAQLIHGKEHKEQDLGFEELNKKPETAQLAKVIGLNLLSKEDQERRDFERKKRINQQKLQEMHKMHKETYNFR”, for which the “soluble on expression in E. coli” value is given as “not soluble”.

“MFFKKNLTTAAICAALSVAAFSAMATDSTDTELTIIGEYTPGACTPVVTGGGIVDYGKHHNSALNPTGKSNKLVQLGRKNSTLNITCTAPTLIAVTSKDNRQSTIVALNDTSYIEKAYDTLVDMKGTKNAFGLGSAPNGQKIGAASIGIDRSNGGIHAADDTGEIPVDLIQTDHWSAATPTWKASSNGAFCSLTSCSAIERGYSVAKTGELTPVAITAVTFPLLIDAAVNDNTILGSDETIKLDGNVTISVQYL”: the “soluble on expression in E. coli” value was “not soluble”.

Consider “MKTNEVLENIKARRSVRAYTDRQVSEEDLQAILEAATFAPSGMHLETWHFTAIQNADKLAELNERIKGAFAKSDEPKLQERGHSKAYCCYYHAPTLVIVSNEPTQWWAGMDCACAIENMFLAAHSLGIGSCWINQLGTTCDDPEVREFISSLGVPENHKVYGCVALGYADPKISLREKMVKAGTVTVVR”, for which the “soluble on expression in E. coli” value is reported as “not soluble”.

On to KEKARAMRVNKRAPQMDWNRKREIFSNF, for which the “soluble on expression in E. coli” value was “soluble”.

In the case of “SLGPPPGPPRVSPDPRAELDSTVLLTRSLLADTRQLAAQLRDKFPADGDHNLDSLPTLAMSAGALGALQLPGVLTRLRADLLSYLRHVQWLRRAGGSSLKTLEPELGTLQARLDRLLRRLQLLMSRLALPQPPPDPPAPPLAPPSSAWGGIRAAHAILGGLHLTLDWAVRGLLLLKTR”, the “soluble on expression in E. coli” value was “soluble”.

As for “MDLSGVKKKSLLGVKENNKKSSTRAPSPTKRKDRSDEKSKDRSKDKGATKESSEKDRGRDKTRKRRSASSGSSSTRSRSSSTSSSGSSTSTGSSSGSSSSSASSRSGSSSTSRSSSSSSSSGSPSPSRRRHDNRRRSRSKSKPPKRDEKERKRRSPSPKPTKVHIGRLTRNVTKDHIMEIFSTYGKIKMIDMPVERMHPHLSKGYAYVEFENPDEAEKALKHMDGGQIDGQEITATAVLAPWPRPPPRRFSPPRRMLPPPPMWRRSPPRMRRRSRSPRRRSPVRRRSRSPGRRRHRSRSSSNSSR”, the “soluble on expression in E. coli” value is recorded as “soluble”.

On to “MTVEHSEAPMTETDVVIIGAGHNGLTCAAYLAMAGLRVRVVERRKVVGGAAVTEEFHPGFRNSVAAYTVSLLNPQVIRDLGLAEQGLRIVERRAQNFLPAPDGSYLLTGEGRTKASVARLSAHDADALDGFSRELEDIADVLRQFVLRAPPNLLDGFGTNAIREAVNALQSANILRGLTLEQSRSLLDLFTRSAGEMLDERFEHDLVKALFGFDAIVGNYASPYAAGSAYVMLHHAFGEVNGKKGVWGHAIGGMGAITQAMARAAQGRGVAIDTDAGVREVIVERDRAVGVVLENGATIRAKYVAANVNPKLLYTRLIAADALPKDFLARIRHWKNGSGTFRMNVALDRLPSFTALPDDGDHLTSGIILAPSLGYMDRAFLDARAHGWSREPVVEMLIPSTLDDTLAPEGKHVASLFCQHVAPELPDSRSWDDHRDEVADLMIATVDSYAPGFASSVLGRQILSPLDLERQFGLLGGDIFHGALTLNQLFSARPMLGHADYRGPLKGLYHCGSGAHPGGGVTGAPGHNAAQAILRDHRSLFGSRGLEHHHHHH”, for which the “soluble on expression in E. coli” value was “not soluble”.

Consider “MLFQNVSIAGLAHVDAPHTLTSKEINGRLQPTYDRLGIKTDVLGDVAGIHARRLWDQDVQASDAATQAARKALIDAGIGIEKIGLLVNTSVSRDYLEPSTASIVSGNLGVGDHCVTFDVANACLAFINGMDIAARMLERGEIDYALVVDGETANLVYEKTLERMTSPDVTEEEFRNELAALTLGCGAAAMVMARTELVPDAPRYKGGVTRSATEWNKLCRGNLDRMVTDTRLLLIEGIKLAQKTFLAARQVLGWAVDELDQFVIHQVSRPHTAAFVKSFGIDPAKVMTIFGEHGNIGPASVPIVLSKLKELGRLKKGDRIALLGIGSGLNCSMAEVVW”, for which the “soluble on expression in E. coli” value is given as “soluble”.
